Substrate in data set [1]: Nc1ccn([C@H]2C[C@H](O)[C@@H](COP(=O)(O)O)O2)c(=O)n1
Kind of data set: Kinetic parameters of PDT variants, dCMP + A ⇄ dAMP + C. The data set is classed as biochemical, Lactobacillus leichmannii. The following applies: adenine as acceptor, fixed, 37.0 °C. As for the experimental part: (§1) The standard assay (“first protocol for enzyme assay”) for the different NDTs consisted of 5-15 μg of NDT in 50 mM MES buffer pH 6.0, dNxP (dNMP, or dNDP or dNTP) 3 mM and a base 1 mM in a total volume of 50 μL. Assays were incubated for 60 min at 37° C. The products of the reactions were analyzed each 7 min by Rapid resolution high performance liquid chromatography using a reverse-phase column (ZORBAX Eclipse XDB-C18 2.1*50 mm 1.8 μM) with a flow rate of 0.25 ml/min and a linear gradient of 1-12% CH3CN (2-25% CH3CN or 1-90% CH3CN) in 20 mM triethylammonium acetate, pH 7.5, buffer for 7 min. The low resolution mass spectra of the newly synthesized deoxyribonucleotides were obtained on an Agilent 1200 series LC/MS 6120 quadrupole system using an atmospheric electrospray ionization system.
This hypothesis was confirmed by monitoring the specific activity, in the presence of dCDP or dCTP as donor and adenine as acceptor (see table 2 above). The kinetic parameters were determined for the best variants with dCMP, dCDP and dCTP as substrates, at a concentration of A being fixed (see table 3 below).

A short description of data set [2]: Standard enzyme assay (HPLC): specific activities of PDT variants with natural purines and pyrimidines. The data set is classed as biochemical. The following applies: for Specific activity: donor 3 mM, acceptor 1 mM. As for the experimental part:
as §1
Unless specifically mentioned, the results presented hereafter have been obtained by using the first protocol for performing the enzyme assay.

The nature of data set [3]: In vitro synthesis of deoxynucleotide analogues: specific activities. In kind it is biochemical. As for the experimental part:
as §1
The donor concentration was 3 mM and the acceptor 1 mM except for dCTP 2 mM 5-BrU 1 mM and dAMP 2 mM 5-FU 1 mM. Activities are expressed in nanomoles of deoxynucleotides synthesized per min per mg of protein.

[4] abbreviates: dAMP + 5-FU → A + 5-F-dUMP, dAMP 2 mM 5-FU 1 mM.
Where [5] appears, read: dCMP + 2,6-D → C + 2,6-DMP, donor 3 mM, acceptor 1 mM.
The mark [6] stands for this setting: dCMP + 2,6-chloropurine → C + 2,6-dichloropurine 2′-deoxyribose 5′-monophosphate, donor 3 mM, acceptor 1 mM.
The mark [7] stands for this setting: dCMP + 5-BrU → C + 5-Br-dUMP, donor 3 mM, acceptor 1 mM.
Setting [8] is: dCMP + 6-chloropurine → C + 6-chloropurine 2′-deoxyribose 5′-monophosphate, donor 3 mM, acceptor 1 mM.

The source of these data is patent US9523084B2, “Phosphodeoxyribosyl transferase mutant enzymes and uses thereof” (Centre National De La Recherche Scientifique, priority 2012, dated 2016).

Numbering of substitutions follows the chain as printed. Names and notes keep the numbering of the source.

B1: Lactobacillus leichmannii nucleoside deoxyribosyltransferase (NDT, SEQ ID NO:1) variant PDTM3, R13 S92 (F13R/D92S), SEQ ID NO:5 (Lactobacillus leichmannii; … (protein)
chain: MPKKTIYFGAGWRTDRQNKAYKEAMEALKENPTIDLENSYVPLDNQYKGIRVDEHPEYLHDKVWATATYNNDLNGIKTNDIMLGVYIPDEESVGLGMELGYALSQGKYVLLVIPDEDYGKPINLMSWGVSDNVIKMSQLKDFNFNKPRFDFYEGAVY
notes: homohexamer (108 kDa)
As usually defined, the Km is the concentration of substrate that gives half-maximal velocity. One may read the kcat as the number of substrate molecules converted per active site and unit of time at saturation. Consider B1, for which, in data set [1] (other: PDTM3), the Km was found to be 22 mM and the turnover number (kcat) was found to be 0.3 s⁻¹.

B2: NDTWT: wild-type nucleoside deoxyribosyltransferase of Lactobacillus leichmannii, SEQ ID NO:1 (F13E91D92V93N123Y157) (protein, listed as Lactobacillus leichmannii)
chain: B1 chain with R13F, S92D
Regarding B2, in data set [2] (dCMP + A ⇄ dAMP + C), the Specific activity was 0.1 nanomoles of deoxynucleotides synthesized per min per mg of protein.

B3: Lactobacillus leichmannii nucleoside deoxyribosyltransferase (NDT, SEQ ID NO:1) variant PDTT0, R13 G92 T93 S123 (F13R/D92G/V93T/N123S), SEQ ID NO:8 … (protein)
chain: B1 chain with S92G, V93T, N123S
notes: homohexamer (108 kDa)
With B3, in data set [1] (other: PDTT0), the Km was found to be 9.2 mM and the kcat was 0.45 s⁻¹.

B4: PDTM5: NDT mutant Q13 S92 S123, SEQ ID NO:7 (protein)
chain: B1 chain with R13Q, N123S
modifications: PDTM5 enzyme mutant
For B4, the Specific activity is 206 nanomoles of deoxynucleotides synthesized per min per mg of protein in data set [2] (dAMP + C ⇄ dCMP + A); <0.1 nanomoles of deoxynucleotides synthesized per min per mg of protein in data set [2] (dAMP + Hx ⇄ dIMP + A); 296 nanomoles of deoxynucleotides synthesized per min per mg of protein in data set [2] (dCMP + A ⇄ dAMP + C); 1.7 nanomoles of deoxynucleotides synthesized per min per mg of protein in data set [2] (dCMP + T ⇄ dTMP + C); 81 nanomoles of deoxynucleotides synthesized per min per mg of protein in data set [2] (dGMP + A ⇄ dAMP + G); 47 nanomoles of deoxynucleotides synthesized per min per mg of protein in data set [3] (setting [4]). Also, the Specific activity in data set [3] (setting [5]) is reported as 78 nanomoles of deoxynucleotides synthesized per min per mg of protein; in data set [3] (setting [6]), 19 nanomoles of deoxynucleotides synthesized per min per mg of protein; in data set [3] (setting [7]) it was 26 nanomoles of deoxynucleotides synthesized per min per mg of protein; in data set [3] (setting [8]), 15 nanomoles of deoxynucleotides synthesized per min per mg of protein.

B5: PDTM2: NDT double mutant D92S, N123S, SEQ ID NO:4 (protein)
chain: B1 chain with R13F, N123S
modifications: PDTM2 enzyme mutant
Consider B5, for which the Specific activity in data set [2] (dCMP + A ⇄ dAMP + C) is 1.7 nanomoles of deoxynucleotides synthesized per min per mg of protein.

B6: PDTM4: NDT mutant R13 S92 S123, SEQ ID NO:6 (protein)
chain: B1 chain with N123S
modifications: PDTM4 enzyme mutant
B6: the Specific activity in data set [2] (dAMP + C ⇄ dCMP + A) is listed as 77.6 nanomoles of deoxynucleotides synthesized per min per mg of protein; in data set [2] (dAMP + Hx ⇄ dIMP + A), <0.1 nanomoles of deoxynucleotides synthesized per min per mg of protein; in data set [2] (dCMP + A ⇄ dAMP + C), 170 nanomoles of deoxynucleotides synthesized per min per mg of protein; in data set [2] (dCMP + T ⇄ dTMP + C), 52 nanomoles of deoxynucleotides synthesized per min per mg of protein; in data set [2] (dGMP + A ⇄ dAMP + G), 57 nanomoles of deoxynucleotides synthesized per min per mg of protein; in data set [3] (setting [4]) it was 43 nanomoles of deoxynucleotides synthesized per min per mg of protein. The Specific activity in data set [3] (setting [5]) is recorded as 96 nanomoles of deoxynucleotides synthesized per min per mg of protein; in data set [3] (setting [6]), 32 nanomoles of deoxynucleotides synthesized per min per mg of protein; in data set [3] (setting [7]), 35 nanomoles of deoxynucleotides synthesized per min per mg of protein; in data set [3] (setting [8]), 24 nanomoles of deoxynucleotides synthesized per min per mg of protein. Besides, the “factor of enhancement of deoxyribose 5-phosphate transferase activity between C and A” value in data set [2] (upon substitution of F13 to arginine (PDTM3 from PDTM1, PDTM4 from PDTM2)) was determined as 50. Further, the “activity relative to PDTM3” value in data set [2] (whatever the couple of bases tested) is “two times more active than PDTM3”.

B7: Lactobacillus leichmannii nucleoside deoxyribosyltransferase (NDT, SEQ ID NO:1) variant PDTM5, Q13 S92 S123 (F13Q/D92S/N123S), SEQ ID NO:7 (Lactobacillus … (protein)
chain: B1 chain with R13Q, N123S
notes: homohexamer (108 kDa)
Turning to B7, in data set [1] (other: PDTM5), the Km is on record as 12 mM and the kcat was 1.99 s⁻¹.

B8: PDTT1: NDT mutant R13 G92 T93 S123 K157, SEQ ID NO:9 (protein)
chain: B1 chain with S92G, V93T, N123S, Y157K
modifications: PDTT1 enzyme mutant
B8: the Specific activity in data set [2] (dADP + C ⇄ dCDP + A) is listed as 12 nanomoles of deoxynucleotides synthesized per min per mg of protein; in data set [2] (dADP + Hx ⇄ dIDP + A), <0.1 nanomoles of deoxynucleotides synthesized per min per mg of protein; in data set [2] (dAMP + C ⇄ dCMP + A) it was 5 nanomoles of deoxynucleotides synthesized per min per mg of protein; in data set [2] (dAMP + Hx ⇄ dIMP + A), <0.1 nanomoles of deoxynucleotides synthesized per min per mg of protein; in data set [2] (dATP + C ⇄ dCTP + A), 1 nanomoles of deoxynucleotides synthesized per min per mg of protein; in data set [2] (dATP + Hx ⇄ dITP + A), <0.1 nanomoles of deoxynucleotides synthesized per min per mg of protein. Moreover, the Specific activity is listed as 31 nanomoles of deoxynucleotides synthesized per min per mg of protein in data set [2] (dCDP + A ⇄ dADP + C); 6 nanomoles of deoxynucleotides synthesized per min per mg of protein in data set [2] (dCDP + U ⇄ dUDP + C (U used as acceptor base instead of T)); 78 nanomoles of deoxynucleotides synthesized per min per mg of protein in data set [2] (dCMP + A ⇄ dAMP + C); <0.1 nanomoles of deoxynucleotides synthesized per min per mg of protein in data set [2] (dCMP + T ⇄ dTMP + C); 10 nanomoles of deoxynucleotides synthesized per min per mg of protein in data set [2] (dCTP + A ⇄ dATP + C); 1 nanomoles of deoxynucleotides synthesized per min per mg of protein in data set [2] (dCTP + T ⇄ dTTP + C). Also, the Specific activity in data set [2] (dGDP + A ⇄ dADP + G) is given as 15 nanomoles of deoxynucleotides synthesized per min per mg of protein; in data set [2] (dGMP + A ⇄ dAMP + G), 32 nanomoles of deoxynucleotides synthesized per min per mg of protein; in data set [2] (dGTP + A ⇄ dATP + G) it was 25 nanomoles of deoxynucleotides synthesized per min per mg of protein.

B9: Lactobacillus leichmannii nucleoside deoxyribosyltransferase (NDT, SEQ ID NO:1) variant PDTM4, R13 S92 S123 (F13R/D92S/N123S), SEQ ID NO:6 (Lactobacillus … (protein)
chain: B1 chain with N123S
notes: homohexamer (108 kDa)
With B9, in data set [1] (other: PDTM4), the Km turned out to be 11 mM and the kcat turned out to be 2.1 s⁻¹.

B10: PDTM1: NDT single mutant D92S, SEQ ID NO:3 (protein)
chain: B1 chain with R13F
modifications: PDTM1 enzyme mutant
For the molecule B10, in data set [2] (dCMP + A ⇄ dAMP + C), the Specific activity is 1.8 nanomoles of deoxynucleotides synthesized per min per mg of protein.
